# Reference: article PMC7292962 (Biochemistry, 2019)
# Read-outs that look alike come from different tables or passages of the source.
# B1: S100A12 (natural protein, human)
# chain: TKLEEHLEGIVNIFHQYSVRKGHFDTLSKGELKQLLTKELANTIKNIKDKAVIDEIFQGLDANQDEQVDFQEFISLVAIALKAAHYHTHKE
# Key:
# Test in all cases: AUC
# [1] = target: the molecule itself
# [2] = target: the molecule itself; remark: listed apart in the source
# [3] = target: the molecule itself; remark: listed apart in the source
# [4] = target: the molecule itself; remark: listed apart in the source
protein,measurement,setting,value
B1,Kd,[1],56.7 µM
same,Kd,[2],4590 µM
same,stoichiometry N,[3],2
same,Kd,[4],13.2 µM
